Reference: the nanobody polyreactivity screen of Harvey et al. (2022)

Test: yeast display, Sf9 membrane polyspecificity reagent, FACS + sequencing; frameworks hold sequencing errors
Outline: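 Galactose induction of a Saccharomyces cerevisiae BJ5465 synthetic nanobody display library ran 36–48 hours. The cells were then stained for 1 hour at 4 °C with 10% biotinylated, detergent-solubilized Sf9 membrane reagent, pulled down on streptavidin microbeads and FACS-sorted into low and high (top ~1%) gates on expression and reagent-binding fluorescence. Labels for polyreactivity follow the gate of origin.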

| Sequence | polyreactivity (PSR sort gate) |
| --- | --- |
| QVQLVESGGGLVQAGGSLRLSCAASGRTFGLYAMGWYRQAPGKVRELVAAISWGGGRTYYADSVKGRFSISRDNAKNSVYLQMNSLKPEDTAVYYCNAVYSPRDYVGGYDYWGQGTQVTVSS | high polyreactivity |
| QVQLVESGGGLVQAGGSLRLSCAASGRTFGLYAMGWYRQSPGKERELVATISRGGSTYYADSVKGRFTISRDNAKNTVYLQMNSLKPEDTAVYYCNAAKYTWYYGYNYWGQGTKVTVSS | high polyreactivity |
| QVQLVESGGGLVQAGGSLRLSCAASGRTFGLYTMGWYRQAPGKERELVAAISRSGGSTYYADSVKGRFTISRDNAKNTVYLQMNSLKPEDTAVYYCATRRSFSDRYDYWGQGTQVTVSS | high polyreactivity |
| QVQLVESGGGLVQAGGSLRLSCAASGRTFGNNAMGRYRLAPGKVWELVAAINWSGASTYYADSVKGRFTISRDNAKNTVYLQMNSLKPEDTAVYYCAADYSYIYGFDYWGQGTQVTVSS | low polyreactivity |
| QVQLVESGGGLVQAGGSLRLSCAASGRTFGNNAMGWYRQAPGKERELVAAISRSGGSTYYADSVKGRFTISRDNAKNTVYLQMNSLKPEDTAVYYCAARLYGGYDWGQGTQVTVSS | high polyreactivity |
| QVQLVESGGGLVQAGGSLRLSCAASGRTFGPNGMGWYRQAPGKERELLAVITSSGGRTYYADSVKGRFTISRDNAKNTVYLQMNSLKPEDTAVYYCAADAKKFGGTKNAELDYWGQGTQVTVSS | low polyreactivity |
| QVQLVESGGGLVQAGGSLRLSCAASGRTFGPYAMGWYRQAPGKERELVAAITSSGGSTYYADSVKGRFTISRDNAKNTVYLQMNSLKPEDTAVYYCNNLYWRQSQDYDYWGQGTQVTVSS | low polyreactivity |
| QVQLVESGGGLVQAGGSLRLSCAASGRTFGQNAMGWYRQAPGKERELVAVISSRGGSTYYADSVKGRFTISRDNAKNTVYLQMNSLKPEDTAVYYCNTDAQSRQTIRTGYDSWGQGTQVTVSS | high polyreactivity |
| QVQLVESGGGLVQAGGSLRLSCAASGRTFGRNAMGWYRQAPGKERELVAAINSGGSTKYADSVKGRFTISRDNAKNTVYLQMNSLKPEDTSVYYCARRGGFSYYYWGQGTQVTVSS | high polyreactivity |
| QVQLVESGGGLVQAGGSLRLSCAASGRTFGRNAMGWYRQAPGKERELVAAITWSGVTTYYADSVKGRFTISRDNAKNTVYLQMNSLKPEDTAVYYCATGTLYSDGAIYGYWGQGTQVTVSS | low polyreactivity |
| QVQLVESGGGLVQAGGSLRLSCAASGRTFGRNAMGWYRQSPGKERELVAAISRSGASTYYADSVMGRFTLSRDNAKNTVYLQMNSLKPEDTAVYDCAARYSYYHGSAGFDYWGQGTQVTVSS | high polyreactivity |
| QVQLVESGGGLVQAGGSLRLSCAASGRTFGRNDMAWYRQAQGKERELVAGISIGGGTTYYADSVKGRFTISRDNAKNTVYLQMNSLKPEDTAVYYCAARSWSYLHRYGYWGQGTQVTVSS | high polyreactivity |
| QVQLVESGGGLVQAGGSLRLSCAASGRTFGRYAMGWYRQAPGKERELLARISYSGGSTYYADSVKGRFTISRDNAKNTDYLQMNSLKPEDTAVYYCAASFFGRFDPDRSYWGQGTQVTVSS | high polyreactivity |
| QVQLVESGGGLVQAGGSLRLSCAASGRTFGRYAMGWYRQAPGKERELVAAINKNGGSTFYADSVKGRFTISRDNAKNTVYLQMNSLKPEDTAVYYCNRTAYVRGYPPWGYDYWGQGTQVTVSS | low polyreactivity |
| QVQLVESGGGLVQAGGSLRLSCAASGRTFGRYAMGWYRQAPGKERELVASITSRGGSTYADSVKGRFTISRDNAKNTVYLQMNSLKPEDTAVYYCASRDKYRYWYAYWRQGTQVTVSS | high polyreactivity |
| QVQLVESGGGLVQAGGSLRLSCAASGRTFGRYAMGWYRQAPGKERELVATITSGGSTNYADSVKGRFTISRDNAKNTVYIQMKSMKPEDTAVYYCAAEFSPSRWAYSEGALRYYYWGQGTQVTVSS | low polyreactivity |

| Sequence | polyreactivity (PSR sort gate) |
| --- | --- |
| QVQLVESGGGLVQAGGSLRLSCAASGRTFGRYAMGWYRQAPGKERELVAVINGGGSTYYADSVKGRFTISRDNAKNTVYLQMKSLKPEDTAVYYCNAGYYWGQGTQVTVSS | high polyreactivity |
| QVQLVESGGGLVQAGGSLRLSCAASGRTFGRYDMGWYRQAPGKERELVAAITGGVITTYADSVKGRFTISRDNAKNTVYLQMKSLKREDTAVYDCAARYNVFPSPHYYYWGQGTQVTVSS | low polyreactivity |
| QVQLVESGGGLVQAGGSLRLSCAASGRTFGRYVMGWYRQAPGKERELVAAIRSRGGSTYYADSVKGRFTISRDNAKNTVYLQMNSLKPEDTAVYYCNAVDRKPYRTYDYWGQGTQVTVSS | high polyreactivity |
| QVQLVESGGGLVQAGGSLRLSCAASGRTFGSNAMGWYRQAPGKERELVAAITKSGGGTYYADSVKGRFTISRDNAKNTVYLQMNSLKPEDTAVYYCAARRYARSGGALYPYDYWGQGSQVTVSS | high polyreactivity |
| QVQLVESGGGLVQAGGSLRLSCAASGRTFGSNLMGWYRQAPGKERELVADISVSGGSTNYADSVKGRFTISRDNAKNTVYVQLNSLNPEDTAVYYCAASQLSDWPPYYYDFDYWGQGTQVTVSS | low polyreactivity |
| QVQLVESGGGLVQAGGSLRLSCAASGRTFGSYAMGWYRQAPGKERELVAAITWSGTGTYYADSVKGRFTISRDNAKNTVYLQMNSLKPEDTAVYYCNTDRWYAYDWGQGTQVTVSS | high polyreactivity |
| QVQLVESGGGLVQAGGSLRLSCAASGRTFGTYAMGWYRQAPGKERELVAVITNGGGTYYADSVKGRFTISRDNAKNTVYLQMNSLKPEDTAVYYCNTDRYGLRRWVYSYWGGYDYWGQGTQVTVSS | low polyreactivity |
| QVQLVESGGGLVQAGGSLRLSCAASGRTFGVNAMGWYRQAPGKERELVAAISRSGGSTYYADSVKGRFTISRDNAKTTVYLQMNSLKPEDTEVYYCAKSYFGHHLTGFGYWGQGTQVTVSS | low polyreactivity |
| QVQLVESGGGLVQAGGSLRLSCAASGRTFGVYAMGWSRQAPGKERELVAGIRWRGGSTYYADSVKGRFTISRDNEKKTVYFQMNSLKPEETAVYYCAADVYLVKYDYWGQGTQVTVSS | low polyreactivity |
| QVQLVESGGGLVQAGGSLRLSCAASGRTFGVYAMGWYRQAPGKERELVAAISATGGSTYYADSVKGRFTISRDNAKNTVYLQMNSLKPEDTAVYYCARGGTTLYWGQGTQVTVSS | high polyreactivity |
| QVQLVESGGGLVQAGGSLRLSCAASGRTFGVYAMGWYRQAPGKERELVAASRWSGGGTYYADSVKGRFTISRDNAKNTVYLQMNSLKPEDTAVYYGAATFQNSPYSRYTDMYYWGQGTQVTVSS | low polyreactivity |
| QVQLVESGGGLVQAGGSLRLSCAASGRTFGVYMGWYRQAPGKERELVAVISSGDSTNYADSVKGRFTISRDNAKNTVYLLMNSLKPEDTAVYYCNAYGSDRLTLDDYWGQGTQVSVSS | low polyreactivity |
| QVQLVESGGGLVQAGGSLRLSCAASGRTFGWDAMGWYRQAPGKERELVAAINNSGDITYYADSVKGRFTISRDNAKNTVYLQMNSLKPEDTAVYYCAATAGYYGYPSEYDYWGQGTQVTVSS | low polyreactivity |
| QVQLVESGGGLVQAGGSLRLSCAASGRTFGWNAMGWYRQAPGKERELVAGITTSGGTTYADSVKGRFTISRDNAKNTVYLQMNSLKPEDTAVYYCAAYVIGPDQFIYDYWGQGTQVTVSS | low polyreactivity |
| QVQLVESGGGLVQAGGSLRLSCAASGRTFGWYAMGWYRQAPGKERELVAAINNSGDITYYADSVKGRFTISRDNAKNTVYLQMNSLKPEDTAVYYCAKSLPHSTSRDYWGQGTQVTVSS | low polyreactivity |
| QVQLVESGGGLVQAGGSLRLSCAASGRTFGYNALGWYRQAPGKERELVAAINWSGASTYYADSVKGRFTISRDKAKNTVYLQMNSLKPEDTAVYYCAKVTRGSQYDYWGQGTQVTVSS | low polyreactivity |
